{"source": "paper PMC11124013", "about": "“Substrate Affinity Is Not Crucial for Therapeutic L-Asparaginases: Antileukemic Activity of Novel Bacterial Enzymes” (Molecules, 2024)", "key": {"[1]": {"substrate": "NC(=O)C[C@H](N)C(=O)O", "assay": "ITC single-injection method", "format": "biochemical, Escherichia coli", "conditions": "PBS pH 7.4, 37 °C", "text": "ITC single-injection method on EcAII"}, "Nessler ammonia assay [2]": {"substrate": "NC(=O)C[C@H](N)C(=O)O", "assay": "Nessler ammonia assay", "format": "biochemical, Escherichia coli", "conditions": "PBS pH 7.4, 37 °C", "text": "Nessler ammonia assay on EcAIII"}, "purified protein [3]": {"substrate": "COC(=O)[C@H](Cc1ccccc1)NC(=O)C[C@H](N)C(=O)O", "assay": "purified protein", "format": "biochemical, Escherichia coli", "conditions": "PBS pH 7.4, 37 °C, 600 µM α-ketoglutarate, 190 µM NADH"}, "Nessler ammonia assay [4]": {"substrate": "NC(=O)C[C@H](N)C(=O)O", "assay": "Nessler ammonia assay", "format": "biochemical, Rhizobium etli", "conditions": "PBS pH 7.4, 37 °C", "text": "Nessler ammonia assay on ReAV"}, "purified protein [5]": {"substrate": "NC(=O)C[C@H](N)C(=O)O", "assay": "purified protein", "conditions": "PBS pH 7.4, 37 °C"}}}
{"protein": "EcAII (Escherichia coli K-12) (protein, synthetic gene, N-terminal 6xHis-tag (pET28a or pMSCG92), expressed in E. coli BL21 (DE3) deltaansA/deltaansB; tetramer) LPNITILATGGTIAGGGDSATKSNYTVGKVGVENLVNAVPQLKDIANVKGEQVVNIGSQDMNDNVWLTLAKKINTDCDKTDGFVITHGTDTMEETAYFLDLTVKCDKPVVMVGAMRPSTSMSADGPFNLYNAVVTAADKASANRGVLVVMNDTVLDGRDVTKTNTTDVATFKSVNYGPLGYIHNGKIDYQRTPARKHTSDTPFDVSKLNELPKVGIVYNYANASDLPAKALVDAGYDGIVSAGVGNGNLYKSVFDTLATAAKTGTAVVRSSRVPTGATTQDAEVDDAKYGFVASGTLNPQKARVLLQLALTQTKDPQQIQQIFNQY", "values": [{"measurement": "Km", "setting": "[1]", "result": "0.012 ± 0.002", "unit": "mM"}, {"measurement": "kcat", "setting": "[1]", "result": "39 ± 1", "unit": "s⁻¹"}, {"measurement": "kcat/Km", "setting": "[1]", "result": "3.3e+06 ± 561000", "unit": "M⁻¹ s⁻¹"}]}
{"protein": "EcAIII (Escherichia coli K-12) (protein, synthetic gene, N-terminal 6xHis-tag (pET28a or pMSCG92), expressed in E. coli BL21 Gold (DE3); precursor self-matures into alpha and beta subunits, (alpha-beta)2 heterotetramer) chain 1: GKAVIAIHGGAGAISRAQMSLQQELRYIEALSAIVETGQKMLEAGESALDVVTEAVRLLEECPLFNAGIGAVFTRDETHELDACVMDGNTLKAGAVAGVSHLRNPVLAARLVMEQSPHVMMIGEGAENFAFARGMERVSPEIFSTSLRYEQLLAARKEGATVLDHSGAPLDEKQKMG chain 2: TVGAVALDLDGNLAAATSTGGMTNKLPGRVGDSPLVGAGCYANNASVAVSCTGTGEVFIRALAAYDIAALMDYGGLSLAEACERVVMEKLPALGGSGGLIAIDHEGNVALPFNTEGMYRAWGYAGDTPTTGIYREKGDTVATQ", "values": [{"measurement": "Km", "setting": "Nessler ammonia assay [2]", "result": "17.66 ± 1.87", "unit": "mM"}, {"measurement": "kcat", "setting": "Nessler ammonia assay [2]", "result": "5.77 ± 0.19", "unit": "s⁻¹"}, {"measurement": "kcat/Km", "setting": "Nessler ammonia assay [2]", "result": "330 ± 100", "unit": "M⁻¹ s⁻¹"}, {"measurement": "Km", "setting": "purified protein [3]", "result": "3.57 ± 0.58", "unit": "mM"}, {"measurement": "kcat", "setting": "purified protein [3]", "result": "0.112 ± 0.007", "unit": "s⁻¹"}, {"measurement": "kcat/Km", "setting": "purified protein [3]", "result": "31 ± 7", "unit": "M⁻¹ s⁻¹"}]}
{"protein": "ReAV (Rhizobium etli CFN 42) (protein, gene in pET151D-TOPO, 6xHis-tagged, expressed in E. coli BL21 Gold (DE3); homodimer, Zn in active site) MTPSEDFVVTDRGGIVENSHRVHAAVVDAKGRLLYALGNPTRMTLARSAAKPAQALAILETEGVAGYGFDDADIALMCASHSSEDRHIARTRAMLSKIKAEEADLRCGGHPSLSEMVNRSWIKQDFIPTAVCSNCSGKHVGMLAGARAIGAGTDGYHLPDHPMQGRVKRTVAELCDLDAGDVEWGTDGCNLPTPAFPLDRLGRIYAKLASAADGSDAGEGQSTRCAALAHIFRAMARHPEMVAGEGRYCTMLMRAFDGALVGKLGADASYAIGVRASDATRQLGTDGALGISVKIEDGNLEMLYAVVTELLERLGIGSPDVRSQLASFHHPQRVNTMGVTTGGVSFPFKLRGSKSNVDDPRLAAVAR", "values": [{"measurement": "Km", "setting": "Nessler ammonia assay [4]", "result": "24.81 ± 3.22", "unit": "mM"}, {"measurement": "kcat", "setting": "Nessler ammonia assay [4]", "result": "28.5 ± 1.6", "unit": "s⁻¹"}, {"measurement": "kcat/Km", "setting": "Nessler ammonia assay [4]", "result": "1150 ± 210", "unit": "M⁻¹ s⁻¹"}]}
{"protein": "ReAIV (Rhizobium etli CFN 42) (protein) MTNPVTVEVTRGLLVESRHRGAVAVVDGDGKLFFSLGDIDTAVFPRSACKAMQALPLVESGAADAYGFGDKELALACASHNGEEEHVALAASMLSRAGRNVEALECGAHWSMNQKVLIQQARSLDAPTALHNNCSGKHAGFICACCHRDIDPKGYVGYEHPLQVEIRAVMERLTGAVLGAESCGTDGCSIPTYAMPLRNLAHGFARMATGTGLEPLRAKASRRLIEACMAEPFYVAGSGRACTKLMQIAPGRIFVKTGAEGVFCAAIPEKGIGISLKSEDGATRAAEAMVAATLARFFETEETVHAALMAFAAMPMRNWNGIHVGDIRATSVFSA", "values": [{"measurement": "Km", "setting": "purified protein [5]", "result": "7.16 ± 2.03", "unit": "mM"}, {"measurement": "kcat", "setting": "purified protein [5]", "result": 9.98, "unit": "s⁻¹"}, {"measurement": "kcat/Km", "setting": "purified protein [5]", "result": 1390, "unit": "M⁻¹ s⁻¹"}]}
